Measured values: paper PMC3658131

Assays:
Assay in all cases: ELISA
[1] = target: Staphylococcus aureus protein A (SpA), wild type, full-length (Staphylococcus aureus) (UniProt P02976)
[2] = target: FL-labeled Bd-cys dimer (disulfide-linked dimer of cysteine-terminated B-domain labelled with FITC) (Staphylococcus aureus)
[3] = target: Bd-cys dimer (affinity-purified cysteine-terminated B-domain, largely dimers linked by a disulfide bond), unlabeled (Staphylococcus aureus)

Sequence of UniProt P02976 (P02976 37-485): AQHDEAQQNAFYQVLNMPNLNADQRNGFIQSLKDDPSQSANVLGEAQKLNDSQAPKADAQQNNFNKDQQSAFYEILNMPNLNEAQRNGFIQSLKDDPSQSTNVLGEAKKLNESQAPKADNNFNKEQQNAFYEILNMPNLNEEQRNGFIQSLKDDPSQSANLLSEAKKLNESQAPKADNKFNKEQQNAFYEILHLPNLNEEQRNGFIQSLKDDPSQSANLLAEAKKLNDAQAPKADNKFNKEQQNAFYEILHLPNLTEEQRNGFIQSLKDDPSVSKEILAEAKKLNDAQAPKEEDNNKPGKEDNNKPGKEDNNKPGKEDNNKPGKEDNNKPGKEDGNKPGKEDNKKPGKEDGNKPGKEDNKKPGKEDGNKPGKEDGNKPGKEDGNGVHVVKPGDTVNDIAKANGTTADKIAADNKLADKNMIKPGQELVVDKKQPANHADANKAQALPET

Substance | net absorbance at 405 nm (net absorbance (405 nm)) [1] | net absorbance at 405 nm (net absorbance (405 nm)) [2] | net absorbance at 405 nm (net absorbance (405 nm)) [3]
HRP-conjugated guinea pig IgG (antibody) | 0.84 | 0.16 | 0.85
HRP-conjugated rabbit IgG (antibody) | 1.25 | 0.21 | 0.98
